Laboratory results: article PMC3333885 (Nucleic Acids Research, 2011)

B1: EcoP15I MTase (Mod subunit, C-terminally His-tagged) (enzyme, UniProt P12364 1-644, looked up)
chain: MKKETIFSEVETANSKQLAVLKANFPQCFDKNGAFIQEKLLEIIRASEVELSKESYSLNWLGKSYARLLANLPPKTLLAEDKTHNQQEENKNSQHLLIKGDNLEVLKHMVNAYAEKVKMIYIDPPYNTGKDGFVYNDDRKFTPEQLSELAGIDLDEAKRILEFTTKGSSSHSAWLTFIYPRLYIARELMREDGTIFISIDHNEFSQLKLVCDEIFGEQNHVGDLVWKNATDNNPSNIAVEHEYIIVYTKNKEQLISEWKSNISDVKNLLVNIGEEFASKYTGNELQEKYTQWFREHRSELWPLDRYKYIDKDGIYTGSQSVHNPGKEGYRYDIIHPKTKKPCKQPLMGYRFPLDTMDRLLSEEKIIFGDDENKIIELKVYAKDYKQKLSSVIHLDGRVATNELKELFPEMTQPFTNAKTIKLVEDLISFACDGEGIVLDFFAGSGTTAHTVFNLNNKNKTSYQFITVQLDEPTKDKSDAMKHGYNTIFDLTKERLIRASKKNRDQGFKVYQLMPDFRAKDESELTLSNHTFFDDVVLTPEQYDTLLTTWCLYDGSLLTTPIEDVDLGGYKAHLCDGRLYLIAPNFTSEALKALLQKVDSDKDFAPNKVVFYGSNFESAKQMELNEALKSYANKKSIELDLVVRN
B2: EcoP15I Mod subunit (untagged, from pQEP15) (natural protein, UniProt P12364 1-644, looked up)
chain: MKKETIFSEVETANSKQLAVLKANFPQCFDKNGAFIQEKLLEIIRASEVELSKESYSLNWLGKSYARLLANLPPKTLLAEDKTHNQQEENKNSQHLLIKGDNLEVLKHMVNAYAEKVKMIYIDPPYNTGKDGFVYNDDRKFTPEQLSELAGIDLDEAKRILEFTTKGSSSHSAWLTFIYPRLYIARELMREDGTIFISIDHNEFSQLKLVCDEIFGEQNHVGDLVWKNATDNNPSNIAVEHEYIIVYTKNKEQLISEWKSNISDVKNLLVNIGEEFASKYTGNELQEKYTQWFREHRSELWPLDRYKYIDKDGIYTGSQSVHNPGKEGYRYDIIHPKTKKPCKQPLMGYRFPLDTMDRLLSEEKIIFGDDENKIIELKVYAKDYKQKLSSVIHLDGRVATNELKELFPEMTQPFTNAKTIKLVEDLISFACDGEGIVLDFFAGSGTTAHTVFNLNNKNKTSYQFITVQLDEPTKDKSDAMKHGYNTIFDLTKERLIRASKKNRDQGFKVYQLMPDFRAKDESELTLSNHTFFDDVVLTPEQYDTLLTTWCLYDGSLLTTPIEDVDLGGYKAHLCDGRLYLIAPNFTSEALKALLQKVDSDKDFAPNKVVFYGSNFESAKQMELNEALKSYANKKSIELDLVVRN
B3: EcoP15I Mod subunit (earlier preparations from pACYC177, no affinity tag) (natural protein, UniProt P12364 1-644, looked up)
chain: MKKETIFSEVETANSKQLAVLKANFPQCFDKNGAFIQEKLLEIIRASEVELSKESYSLNWLGKSYARLLANLPPKTLLAEDKTHNQQEENKNSQHLLIKGDNLEVLKHMVNAYAEKVKMIYIDPPYNTGKDGFVYNDDRKFTPEQLSELAGIDLDEAKRILEFTTKGSSSHSAWLTFIYPRLYIARELMREDGTIFISIDHNEFSQLKLVCDEIFGEQNHVGDLVWKNATDNNPSNIAVEHEYIIVYTKNKEQLISEWKSNISDVKNLLVNIGEEFASKYTGNELQEKYTQWFREHRSELWPLDRYKYIDKDGIYTGSQSVHNPGKEGYRYDIIHPKTKKPCKQPLMGYRFPLDTMDRLLSEEKIIFGDDENKIIELKVYAKDYKQKLSSVIHLDGRVATNELKELFPEMTQPFTNAKTIKLVEDLISFACDGEGIVLDFFAGSGTTAHTVFNLNNKNKTSYQFITVQLDEPTKDKSDAMKHGYNTIFDLTKERLIRASKKNRDQGFKVYQLMPDFRAKDESELTLSNHTFFDDVVLTPEQYDTLLTTWCLYDGSLLTTPIEDVDLGGYKAHLCDGRLYLIAPNFTSEALKALLQKVDSDKDFAPNKVVFYGSNFESAKQMELNEALKSYANKKSIELDLVVRN
B4: SR60-1/SR60-1c, dsDNA one site (dsDNA)
DNA 1: GGTCGACGAACCGTAATCGTACCCAGCAGATATCGGTACCGTTCGGTAATATTCCGACGG
DNA 2: CCGTCGGAATATTACCGAACGGTACCGATATCTGCTGGGTACGATTACGGTTCGTCGACC
B5: SR60-1, ssDNA (ssDNA)
DNA: GGTCGACGAACCGTAATCGTACCCAGCAGATATCGGTACCGTTCGGTAATATTCCGACGG
B6: SR60-0/SR60-0c, dsDNA no site (dsDNA)
DNA 1: GGTCGACGAACCGTAATCGTACCGAACCGATATCGGTACCGTTCGGTAATATTCCGACGG
DNA 2: CCGTCGGAATATTACCGAACGGTACCGATATCGGTTCGGTACGATTACGGTTCGTCGACC

Assays:
AUC = molecular target: the molecule itself; assay: AUC
[1] = molecular target: T1, EcoP15I Res subunit, C-terminally His6-tagged (from pQEP15) (UniProt Q5ZND2 1-970); assay: second-derivative UV absorption spectroscopy
T1 sequence (looked up): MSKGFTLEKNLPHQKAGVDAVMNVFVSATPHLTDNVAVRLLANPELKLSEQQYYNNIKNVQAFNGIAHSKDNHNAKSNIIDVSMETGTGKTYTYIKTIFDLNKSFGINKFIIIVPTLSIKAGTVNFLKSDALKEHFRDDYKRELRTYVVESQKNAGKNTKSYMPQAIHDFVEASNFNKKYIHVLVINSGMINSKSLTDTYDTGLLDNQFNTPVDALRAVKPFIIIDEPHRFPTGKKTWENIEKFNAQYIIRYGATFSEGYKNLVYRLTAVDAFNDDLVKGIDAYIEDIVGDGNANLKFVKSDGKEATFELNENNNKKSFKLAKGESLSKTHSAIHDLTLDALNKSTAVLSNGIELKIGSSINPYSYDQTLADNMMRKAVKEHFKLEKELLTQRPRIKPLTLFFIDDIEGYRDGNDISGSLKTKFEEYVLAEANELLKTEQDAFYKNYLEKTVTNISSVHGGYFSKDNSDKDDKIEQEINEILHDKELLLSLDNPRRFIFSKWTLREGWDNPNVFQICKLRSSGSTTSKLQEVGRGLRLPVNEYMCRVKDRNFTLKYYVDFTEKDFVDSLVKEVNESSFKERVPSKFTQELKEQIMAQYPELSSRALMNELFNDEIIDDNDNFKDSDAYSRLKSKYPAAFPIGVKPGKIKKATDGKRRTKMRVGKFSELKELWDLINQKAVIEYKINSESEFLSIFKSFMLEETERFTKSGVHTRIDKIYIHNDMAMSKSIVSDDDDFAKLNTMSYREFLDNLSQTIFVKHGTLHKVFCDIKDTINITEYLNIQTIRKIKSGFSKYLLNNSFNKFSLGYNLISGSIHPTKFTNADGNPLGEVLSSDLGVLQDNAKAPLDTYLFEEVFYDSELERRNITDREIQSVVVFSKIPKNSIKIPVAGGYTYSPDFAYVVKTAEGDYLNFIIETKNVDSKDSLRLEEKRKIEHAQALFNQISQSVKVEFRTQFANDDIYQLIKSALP

[2] = molecular target: T1, EcoP15I Res subunit, C-terminally …; assay: SEC
[3] = molecular target: T2, EcoP15I Res subunit (earlier preparations from pACYC177, no affinity tag) (UniProt Q5ZND2 1-970); assay: densitometry of SDS-PAGE of the purified enzyme
T2 sequence (looked up): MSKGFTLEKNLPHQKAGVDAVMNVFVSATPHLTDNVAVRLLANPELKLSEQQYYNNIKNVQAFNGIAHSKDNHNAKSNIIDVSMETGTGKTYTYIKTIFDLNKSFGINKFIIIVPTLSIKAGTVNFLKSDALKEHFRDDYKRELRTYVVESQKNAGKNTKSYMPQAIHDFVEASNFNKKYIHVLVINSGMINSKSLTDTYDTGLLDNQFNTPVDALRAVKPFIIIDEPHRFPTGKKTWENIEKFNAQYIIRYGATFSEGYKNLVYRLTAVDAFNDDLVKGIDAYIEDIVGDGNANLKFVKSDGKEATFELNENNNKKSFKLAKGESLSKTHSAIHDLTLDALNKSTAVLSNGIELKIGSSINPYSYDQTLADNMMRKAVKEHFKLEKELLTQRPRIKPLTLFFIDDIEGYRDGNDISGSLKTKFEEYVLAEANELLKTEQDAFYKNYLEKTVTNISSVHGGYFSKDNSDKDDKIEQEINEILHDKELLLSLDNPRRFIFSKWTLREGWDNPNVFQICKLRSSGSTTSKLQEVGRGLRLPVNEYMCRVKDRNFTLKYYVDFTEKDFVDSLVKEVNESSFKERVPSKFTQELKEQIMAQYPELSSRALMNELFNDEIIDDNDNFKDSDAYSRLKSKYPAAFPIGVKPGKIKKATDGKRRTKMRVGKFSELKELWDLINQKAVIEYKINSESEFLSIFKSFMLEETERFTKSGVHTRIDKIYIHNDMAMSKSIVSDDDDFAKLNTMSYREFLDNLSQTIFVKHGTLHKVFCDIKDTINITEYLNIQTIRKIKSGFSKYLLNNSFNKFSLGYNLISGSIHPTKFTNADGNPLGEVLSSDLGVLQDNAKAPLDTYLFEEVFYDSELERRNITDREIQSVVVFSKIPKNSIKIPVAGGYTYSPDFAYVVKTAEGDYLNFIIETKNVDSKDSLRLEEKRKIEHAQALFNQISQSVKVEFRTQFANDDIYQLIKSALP

[4] = molecular target: T3, EcoP15I Res translocase (Tr) domain (UniProt Q5ZND2 1-705); assay: EMSA
T3 sequence: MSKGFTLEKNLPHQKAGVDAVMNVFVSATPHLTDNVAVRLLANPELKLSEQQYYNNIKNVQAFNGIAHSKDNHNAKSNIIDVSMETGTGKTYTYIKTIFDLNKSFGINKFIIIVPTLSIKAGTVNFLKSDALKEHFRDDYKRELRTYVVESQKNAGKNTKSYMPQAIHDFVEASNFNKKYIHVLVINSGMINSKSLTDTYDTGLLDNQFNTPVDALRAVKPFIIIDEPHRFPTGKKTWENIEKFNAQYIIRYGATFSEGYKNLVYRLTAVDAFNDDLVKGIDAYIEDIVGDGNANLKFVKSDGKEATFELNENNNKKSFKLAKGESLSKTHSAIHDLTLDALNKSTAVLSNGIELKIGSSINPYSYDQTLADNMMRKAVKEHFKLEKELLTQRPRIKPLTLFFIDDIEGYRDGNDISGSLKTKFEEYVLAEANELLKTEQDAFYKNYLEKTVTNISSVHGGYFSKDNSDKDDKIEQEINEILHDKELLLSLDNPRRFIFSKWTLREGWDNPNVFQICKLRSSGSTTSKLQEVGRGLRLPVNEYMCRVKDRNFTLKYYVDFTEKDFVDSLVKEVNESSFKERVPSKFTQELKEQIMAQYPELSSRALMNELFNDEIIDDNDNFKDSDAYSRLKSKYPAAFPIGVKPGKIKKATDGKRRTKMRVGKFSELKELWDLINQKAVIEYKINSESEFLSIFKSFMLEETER

[5] = molecular target: EcoP15I Mod subunit;EcoP15I Res subunit (Escherichia coli?;Escherichia coli?, UniProt P12364;Q5ZND2 1-644;1-970, |); assay: EMSA
[6] = molecular target: T4, EcoP15I Mod subunit;EcoP15I Res translocase (Tr) domain (Escherichia coli?;Escherichia coli?, UniProt P12364;Q5ZND2 1-644;1-705, |); assay: EMSA
T4 sequence 1: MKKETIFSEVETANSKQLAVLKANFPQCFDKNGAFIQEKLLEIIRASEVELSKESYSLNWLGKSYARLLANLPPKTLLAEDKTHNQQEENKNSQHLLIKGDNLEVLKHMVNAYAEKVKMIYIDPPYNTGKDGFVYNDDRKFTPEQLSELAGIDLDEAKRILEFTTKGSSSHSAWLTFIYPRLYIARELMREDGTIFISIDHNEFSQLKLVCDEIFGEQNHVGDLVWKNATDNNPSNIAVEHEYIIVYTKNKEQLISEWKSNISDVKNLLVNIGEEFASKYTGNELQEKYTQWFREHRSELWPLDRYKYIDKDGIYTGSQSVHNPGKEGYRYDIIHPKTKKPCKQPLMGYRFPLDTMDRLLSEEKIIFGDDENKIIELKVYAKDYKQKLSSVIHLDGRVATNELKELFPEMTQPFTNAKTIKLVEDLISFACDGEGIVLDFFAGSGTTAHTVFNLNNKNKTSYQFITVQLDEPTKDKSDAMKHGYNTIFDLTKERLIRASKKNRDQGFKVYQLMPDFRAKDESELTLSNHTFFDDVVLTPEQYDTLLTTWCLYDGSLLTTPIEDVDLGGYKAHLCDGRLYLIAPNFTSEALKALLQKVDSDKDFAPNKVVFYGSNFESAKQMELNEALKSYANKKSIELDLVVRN
T4 sequence 2: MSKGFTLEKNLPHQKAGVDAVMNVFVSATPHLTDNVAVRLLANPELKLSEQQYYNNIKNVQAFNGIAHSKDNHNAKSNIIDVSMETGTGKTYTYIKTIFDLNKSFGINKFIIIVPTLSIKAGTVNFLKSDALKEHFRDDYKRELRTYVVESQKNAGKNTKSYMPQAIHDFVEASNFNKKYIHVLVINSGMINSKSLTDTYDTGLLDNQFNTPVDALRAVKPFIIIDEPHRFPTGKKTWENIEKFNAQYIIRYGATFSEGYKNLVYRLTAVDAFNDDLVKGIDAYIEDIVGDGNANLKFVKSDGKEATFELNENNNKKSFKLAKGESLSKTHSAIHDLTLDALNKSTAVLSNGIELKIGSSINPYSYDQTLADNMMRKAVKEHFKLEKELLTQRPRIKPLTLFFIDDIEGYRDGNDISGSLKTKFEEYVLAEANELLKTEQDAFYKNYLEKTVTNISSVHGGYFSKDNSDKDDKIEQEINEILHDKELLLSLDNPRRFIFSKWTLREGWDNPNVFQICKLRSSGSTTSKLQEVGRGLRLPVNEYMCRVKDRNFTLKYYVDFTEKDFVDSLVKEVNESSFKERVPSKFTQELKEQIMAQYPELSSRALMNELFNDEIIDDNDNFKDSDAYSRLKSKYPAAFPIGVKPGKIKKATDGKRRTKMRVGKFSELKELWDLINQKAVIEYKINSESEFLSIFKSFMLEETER

Binder	Kd [4] [nM]	Kd [5] [nM]	Kd [6] [nM]	further results
B1				stoichiometry N (AUC): 2
B2				stoichiometry N [1]: 2 Mod:Res; Mod:Res ratio in SEC peak 1 [2]: ~1 Mod:Res; stoichiometry N [2]: 1.8 Mod:Res
B3				stoichiometry N [3]: 1.8 ± 0.15 Mod:Res
B4	128	16	121	
B5	268	267	346	
B6	93	37	160	
